# Laboratory results reported in patent publication US20160257751A1 (SORRENTO THERAPEUTICS, published 2016).
# Target: T1, human CD47 (human, UniProt Q08722 19-139, limits assumed, biotinylated in the ELISAs (site not stated))
# T1 construct: also called biotinylated CD47; CD47 receptor
# Experiment: SPR (BIACORE)
# T1 sequence (Q08722 19-139 limits assumed): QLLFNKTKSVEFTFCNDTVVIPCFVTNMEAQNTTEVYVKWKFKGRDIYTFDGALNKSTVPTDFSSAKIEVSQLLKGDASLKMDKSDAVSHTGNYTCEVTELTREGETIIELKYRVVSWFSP
Kd,koff,kon,Binder
82.3 nM,0.047 s⁻¹,576000 M⁻¹ s⁻¹,"C47A8 (antibody, V domains shown, also called CD47A8) VH: QVQLVQSGAEVKKPGASVKVSCKASGYTFTSYYMHWVRQAPGQGLEWMGIINPSGGSTSYAQKFQGRVTMTRDTSTSTVYMELSSLRSEDTAVYYCARSTLWFSEFDYWGQGTLVTVSS VL: QSVLTQPSSVSASPGQSITISCSGTSSDVGGHNYVSWYQQHPGKAPKLMIYDVTKRPSGVPDRFSGSKSGNTASLTVSGLQAEDEADYYCCSYAGSRVYVFGTGTKLTVL"
12.1 nM,0.00129 s⁻¹,106000 M⁻¹ s⁻¹,"C47B10 (antibody, V domains shown, lambda light chain (captured with anti-human lambda); also called CD47B10) VH: QVQLVQSGAEVKKPGASVKVSCKASGYTFTSYYMHWVRQAPGQGLEWMGIINPSGGSTSYAQKFQGRVTMTRDTSTSTVYMELSSLRSEDTAVYYCARSTLWFSEFDYWGQGTLVTVSS VL: QSVLTQPASVSGSPGQSISISCTGTSSDVGGHNYVSWYQQHPGKAPKLMIYDVRNRPSGVSNRFSGSKSGSTASLTISGLQTEDEADYYCNSYTGSRTYVFGSGTKLTVL"
156 nM,0.034 s⁻¹,215000 M⁻¹ s⁻¹,"C47A8-CS (antibody, V domains shown) VH: QVQLVQSGAEVKKPGASVKVSCKASGYTFTSYYMHWVRQAPGQGLEWMGIINPSGGSTSYAQKFQGRVTMTRDTSTSTVYMELSSLRSEDTAVYYCARSTLWFSEFDYWGQGTLVTVSS VL: QSVLTQPSSVSASPGQSITISCSGTSSDVGGHNYVSWYQQHPGKAPKLMIYDVTKRPSGVPDRFSGSKSGNTASLTVSGLQAEDEADYYCSSYAGSRVYVFGTGTKLTVL"
156 nM,0.02 s⁻¹,129000 M⁻¹ s⁻¹,"C47A8-CQ (antibody, V domains shown) VH: QVQLVQSGAEVKKPGASVKVSCKASGYTFTSYYMHWVRQAPGQGLEWMGIINPSGGSTSYAQKFQGRVTMTRDTSTSTVYMELSSLRSEDTAVYYCARSTLWFSEFDYWGQGTLVTVSS VL: QSVLTQPSSVSASPGQSITISCSGTSSDVGGHNYVSWYQQHPGKAPKLMIYDVTKRPSGVPDRFSGSKSGNTASLTVSGLQAEDEADYYCQSYAGSRVYVFGTGTKLTVL"
